Source: publication PMC2852889

Target: human serum amyloid P (human), P02743
Assay: SPR
Settings: remark: other sources report otherwise

human serum amyloid P (human), P02743, sequence (P02743 20-223): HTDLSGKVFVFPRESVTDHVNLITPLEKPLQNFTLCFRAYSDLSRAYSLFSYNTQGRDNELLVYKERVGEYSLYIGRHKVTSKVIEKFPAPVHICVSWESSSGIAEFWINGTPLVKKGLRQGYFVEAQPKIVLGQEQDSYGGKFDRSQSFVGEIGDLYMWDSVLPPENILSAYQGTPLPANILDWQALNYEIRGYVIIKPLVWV

Kd: 0.37 nM
B1: hFcγRIIIB, O75015 17-200 (receptor)
chain: GMRTEDLPKAVVFLEPQWYSVLEKDSVTLKCQGAYSPEDNSTQWFHNENLISSQASSYFIDAATVNDSGEYRCQTNLSTLSDPVQLEVHIGWLLLQAPRWVFKEEDPIHLRCHSWKNTALHKVTYLQNGKDRKYFHHNSDFHIPKATLKDSGSYFCRGLVGSKNVSSETVNITITQGLAVSTIS
